Target: purified MHC
Test: competition with radiolabeled known MHC binding peptide for purified MHC

Row | Binder | IC50 [µM]
1 | LQLQPFDQPRLPWPQ [P1f (modified gluten peptide …)] | 5.44
2 | PYPHPWLRGPQPQPF [P3f (modified gluten peptide …)] | 0.879
3 | PYPHPRLPYTQPQPF [P3c (modified gluten peptide …)] | 2.99
4 | KLPYPQGRLPGPQPQ [P2g (modified gluten peptide …)] | 3.75
5 | PYSQPESPYMQPQPF [P3d (modified gluten peptide …)] | 1.99
6 | LQLQPFWQPKLPGPQ [P1g (modified gluten peptide …)] | 11.2

Source: patent publication US20210292381A1
